According to patent US20230226096A1 (Orna Therapeutics, Inc., priority 2020, published 2023):

B1: Oscivirus (nucleic acid, listed as Oscivirus sp.)
DNA: CCTCGGTCCCTCTTTCCGTCGCCGCCCACGACGTTAAATGCGGTGTTGTGGTGCTTAGGTGCCACACCACTGCTATTTGGGTCCCCCTTTCCCCTATATATGTTTGTTTGTTTATTTCAATTTCTTGAGGATTGGCACCTCCTTATGCCAAATCTAAATCGTGGAGGATCCCAGGCTTTCTGGTCTTTAACAGAACTCCACGTCCAGGTCATAGAAACTGGTTGGTAGGCTGCCTGAGTAGTCCATTTGCTAGTAGTCCCTTGTGAACAGGGTGGCTCCCGTTTACTGCTGGTATTCCCGGTGTAGGTCGCCATGGTGGTAACACCATCCTGCATTGTGTGTGAACCAGTACCGCAAGGATAGCAAGGTATGAACACTTGTGGACGAAATGGTAAGTGATCAATTCACTTTCATGGCCGGAAGGTCACGTGGCAATCATGCCACCCAGGTACCCTCCTCTGGGAGGATCTGAGGGTGGGCTAAGCAGACCCTGCCATGTGGCTGAACTTTTCCCTTATTGTTTTACTTTGTAACATTTATAGTTGTGTTAGTGATTTGTGTGTTGTGCCCTTGTGAGCTATATCCAGTATAAGTTCGCAGCTAGAAGTTAATCCTTCGACATCGGCTGTATTGGAA
B2: Parechovirus A8 (nucleic acid, listed as Parechovirus sp.)
DNA: GGGCCTTATACCCCGACTTGCTGAGTTTCTCTAGGAGAGTCCCTTTCCCAGCCCTGAGGCGGCTGGATAATAAAGGCCTCACATGTAACAAACATCTAAGACAAAATAATTTGCCTTGCACCTGGTCCCCACTAGTTGAAGGCATCTAGCAATAAGATGAGTGGAACAAGGACGCTTAAAGTGCAATGATAGTTATCTTTTCTAACCCACTATTTATAGTGGGGTGGTGGATGGCGCACCATAATTCTAATAGTGAGATACCACGCTTGTGGACCTTATGCTCACACAGCCATCCTCTAGTAAGTTTGTGAGACGTCTGGTGACGTGTGGGAACTTACTGGAAACAATGCTTTGCCGTAAGGCTTTCATTAGCCAGCGGACCACCACCTGGTAACAGGTGCCTCTGGGGCCAAAAGCCAAGGTTTAATAGACCCTAATGGAATGGTTCAAACCTGGAGCATTGTGGAAAGTACTTAGTACCTGCTGATCTGGTAGTAATGCAAACACTAGTTGTACGGCCCACGAAGGATGCCCAGAAGGTACCCGTAGGTAACAAGTGACACTATGGATCTGATCTGGGGCCAACTACCTCTATCTTGGTGAGTTGGTTAAAAAACGTCTAGTGGGCCAAACCCAGGGGGGATCCCTGGTTTCCTTTTATTTTACTTTGTCAAT
B3: Beihai Conger Picornavirus (nucleic acid)
DNA: GGGACAACCCCACAGCTGGTACAACCATTGTGGGTTGGTCTCCACCCTTTTTCAACCGTGGCAACTTCGGTTAAAGTTGCAAATCCCCCCTCTCCCTATTCCACCTCCCTTACTTTCACTCCCCATATATGGTCCCAGATTTTATTCTACCTCTTTATATTTTTATTTAGTACAGTGGTGGTGAATTACTCCCAGCATAAACTTTGCTGGATCAGTGTTCATCAAGCATACTAATTACTAATGTACTGAGCTATACTATTATCTGGCATCTCACCTGGATAACCGGTGTGACCATATTTCCTAGGTTGCCTCCCTATGTATTTTGTAGCACCTGTGCATCTGCACGTTGGGGCGACAAATTGTAGGTTTCCTGGCACGGGTAAGAATTGTGGAAAGCTAGTATGCAGTTAATGCAAGGGCGCGTTTTTCGCTACCCCGACACTGCTAAAGTTTTTGGGAGGGGTCCCTTAAACATTTCTAGTATTGAGTGATAGCTTTGCGGCAGGTCACCACAACCTTACTATAAATAAACCTGTTGAATCTCAC
B4: Potamipivirus A (nucleic acid)
DNA: CACATGGAAAGCTTTTCGCTTCCATGTTTACGCACACACTCTCTTTGACACCCTGTTGTATGGTGTTAAACTACAACATTTGTCTGTCTATAATCGTTTATTTTGTTTACCCTATATGTACCCAAGTATTTGATTGCTTGACTCACATAAGCATCGGTAACCCATACTGTTTTATGAGCTACTACCTCTGCTGTCTACATACATTTTATATGAATGGTTTGAGCTCTGCCTCAGGATCAAACATGGTAACATGTTCCTTTGGTCAGTTAGAATCTTATTGTATAATCTAAGGTGTCTATTAGTACGTAGAAAGTTGTAACACATATGGGGCCTGATAGCCGCTATCTCTGATGGATGTAAGGTAACCTTCTTTAGGTCTGATACATTCTGCACAGGATCCAATTTTCGGTGCCCTGTACGAGTGCACTCTTATGCACGAGGACGAGATATGCTACAACCCACTGCAAATTTAAACCCAAACTTTAACA
modifications: Potamipivirus A
B5: Parechovirus A17 (nucleic acid, listed as Parechovirus sp.)
DNA: CTCTATTAGTGAGATACCACGCTTGTGGACCTTATGCTCACACAGCCATCCTCTAGTAAGTTTGTAAGACGTCTGGTGACGTGTGGGAACTTGTGGGAATCAATATTTTGCTTTAAAGCATCCATTAGCCAGCGGATAAAACACCTGGTAACAGGTGCCTCTGGGGCCAAAAGCCAAGGTTTAACAGACCCTAGTGGATTGGTTTCAAAACCTGAAATATTGTGGAACACACTCAGTACCTACTGATCTGGTAGTAATGCAAGCACTAGTTGTAAGGCCCACGAAGGATGCCCAGAAGGTACCTGTAGGGAACAAGAGACACTATAGATCTGATCTGGGGCTGGCTACCTCTATTTTGGTGAGTCAGTTAAAAAACGTCTAGTGGGCCAAACCCAGGGGGGACCCTGGTTTCCATTTATTTTACAAAGGCACT
B6: Porcine Sapelovirus A2 (nucleic acid, listed as Sapelovirus sp.)
DNA: TTGAAATGGGTGTGGGGTACATGCGTATTACGGTACGCATATATTCCACACTCATTTCCCCCCCTCCACCCTTAAGGTGGTTGTATCCCCATACCTTACCCTCCCTTCTAAAACAGATGGACAAATGGATTTGAACTTATGGCAAGTGAATATGGTATGACTTTGGATACACTTTAACGGCAGTAGCGTGGCGAGCTATGGAAAAATCGCAATTGTCGATAGCCATGTTAGTGACGCGCTTCGGCGTGCTCCTTTGGTGATTCGGCGACTGGTTACAGGAGAGTAGGCAGTGAGCTATGGGCAAACCTCTACAGTATTACTTAGAGGGAATGTGCAATTGAGACTTGACGAGCGTCTCTTAGAGATGTGGCGCATGCTCTTGGCATTACCATAGTGAGCTTCCAGGTTGGGAAACCTGGACTGGGCCTATACTACCTGATAGGGTCGCGGCTGGCCGCCTGTAACTAGTATAGTCAGTTGAAACCCCCC
B7: Simian Sapelovirus 2 (nucleic acid, listed as Sapelovirus sp.)
DNA: TTTTAACTTGTTATGACATTCAAGGAAAAAATGTCTTTTTCATTATGGGACTGACCTGTTTATGAACATGAGCAGCGGCACTGCTCCACGGGCTATCCGTGTAAGAAATATTGATTATTCTTATGGATCATGATTTCAGGGTTGGCCGCCCAGTCTAAAAGGCAATTGTGGTAAGCTATGTAAGTAGTTGGCTGTTGAAAGGAGCCAAGTACATCCTAGGTCTACGCTGTGCGGGCCGAAGTAAGACTTGGAACAACTCTGAGTAGGCAGTTTTTCTCTTTAGCCCAACACGACCGCATACTGAAGAGCTAGAGGCACTTTGGGGCAAAGGTAAAAGCATTGCTTAGACCGAATGTTCAATGAGACCTTGACGAGTGCTGTCACAGTGTCCCCTGATGGCAGTATGGCGCATGCTCTTGGCATTACCCATATGTGTATCTATAGGGGGGGGGCCCCCTATACTTAGTCTAGTGCTACCTGACAGGGCCGCGGCTGGTCGTCGGTGTGTGGTATAACCAGTAGTAATCCCCCATGGATTGCTTTAACTCCCCCTCCTCCCTCAACAAAACTTTCTCTAAG
B8: Rabovirus C (nucleic acid)
DNA: CCGGGTATAACCCGGAGTTTTGGGGCAGGTCCAAGCCCCACATAGGAACATACGATCCACGGATCGTGTGTTCTTTTATGCTTTCTAACCTTACCCTTTGTAACCATTACGCTTTACGCCGCATGGTGTTTGGCGGCACCATGACGTGGACAAGAGGTTACGCCATTACGATATGTACCCTCCCCTTTTGGGGAGAGACCGACCAATTATGGTACAGTATCCAACTGTATTGTGGTCAAGTACTTCTGTTTCCCCGGTGATGCGGGATAGGCTGTACCCACGGCCAAAACCTGCTGATCCGTTACCCGACTCACATCTACGAGGAGGCTAGTAAAAGGCATGAAGTTCAAGAGTATGATCCAACCAGATCCCCACTGGTAAACTAGTGATGAGGGTTCCCGTTCCGAACATGGCAACATGTGGGTTCCCTGCGTTGGCACTAGGCCCCTTCCGAGGGGTGCTCTGAAGATGGATTGTTGATGAAGACCAATTTGTGCATGTGTTTATCCTCCGGCCCTCTGA
modifications: Rabovirus C
B9: Simian Sapelovirus 1 (nucleic acid, listed as Sapelovirus sp.)
DNA: CCAAGGATCTGTTGCATAGGCGTTGTATCCCCTAACCTTTTACCTACCCATCCCAATAGGACTGGTATTTCGGTTTTGATTGAGTAATGGATACTGATTCTATACCTGTTACCCATTCAGGGGAAAAATGGAGTTTCTTTCATGGATCTGACTTGATATGACCAAGAGTCAACACTTTGCGTGTTGGCCGTATGGAATGCTTTAAGGTTTATTCTTTGGATTATGACTTCAGGGTTGGCCGCCCAGGATAAAAGGCAATTGTGGTAAGTGATGTTAGTCATTGGTGGTTGAAACCTGCCTAAGACGTCCTAGGTCTACGCTGTGCGGGCCGAAGTAAGCTTAGGAATAACAGGGAGTATGCCATTTTCTGCTTTCACCCAACACGACCGTACACGAAAGAGCTAGAGGCACTTTGGGGCAAAGGGAAAAGCTTTGCTTAGCCCGAATGTTCATTTGAGTCCTTGACGAATGCGTCCCGTCTGTCCCGACGGTGAGGCGTATGGCGCATGCTCATGGCATTACCCAATGGTGTATCTGTGAGGGGGGGGCTCCTCACACTTAGTCTAGTGCTACCTGACAGGGCCGCGGCTGGTCGTTTGTGTATGGTATAACCAGTAGTAATCCCCCATGGATTGCTTTAACTTCCCCTCCTCCCTTACCAAGACATTCTCTAAG
B10: Potamipivirus B (nucleic acid)
DNA: TTTCAACGTCGTGGCTGACGTTAAAAAGCCACAATTCCACTTACCTTTTACCTTTTATGTTTAATGTTTGTTAGTTTTGTGATCTTTAACAAATAGATCTAAATAATTTGTTGGTAACCAATCTCGGATGTTTCGGCTGCATTGTAGTTTATTTATTTCATTTTAGTTGTAGGTGGCCACTACGTCCTGGAATCATACATGGTAACATGTACCTCGGCGGTTATCCACTATTACGCTAATCTAAGAATATTTAAATGAAAATGTAAGTGTTACGGCTGACTTTGGGCCTGATAGTTAAATGCTCGCACTGACAGATAGTACCCTCCTTTAGGATCGATTCTGTTACATGGGATCCATTTTGGTGCCCCACTGATTCAACCTCTTTGTTGAAAAAGAGTTAGCATACTACAAATTTTCCAAACAAAAACCCTTTTTAATGACTACAACTTATGATTTTATGAATTTTACTGCTCTTGAAAAAGATATTTTGACATTGATCGCTGTACTGTTTCAGACATTCATTGCATCCATTTTTGTTGGCTACTCCTCACAAACTCAAAACTTTTCCACACGAGAAACCTTGTTTATTGAATTTTGCCTTTATATTTTGGAACTTGTTGTTGGATTTATTGTTTGCTTAATTATTGACCTCACACCTGTTTTAAACACTACAAT
modifications: Potamipivirus B

Tested on: HEK293 cells
Assay type: cell-based, human
Details: luminescence from secreted Gluc in supernatant 24 hours after transfection of HEK293 cells; circular RNA encoding Gluc with the named IRES (UTR truncated to 675 nt)

In order of rising Expression:
1. B10  7.20E+05
2. B4  8.43E+05
3. B3  1.15E+06
4. B5  1.20E+06
5. B8  2.49E+06
6. B6  4.34E+06
7. B2  1.61E+07
8. B7  4.24E+07
9. B1  4.55E+07
10. B9  6.55E+07
